Measurements published in the RNAGym collection of RNA variant scans (doi:10.1073/pnas.2313332121).
Fewer inactive variants are shown than the library holds.

B1: TPR 5TU (parent)
chain: GGAUCUUCUCGAUCUAACAAAAAAGACAAAUCUGCCACAAAGCUUGAGAGCAUCUUCGGAUGCAGAGGCGGCAGCCUUCGGUGGCGCGAUAGCGCCAACGUUCUCAACUAUGACACGCAAAACGCGUGCUCCGUUGAAUGGAGUUUAUCAUG

Variants of: B1
Test: polymerase ribozyme fitness, log enrichment relative to wild type (log ratio); higher = more active; in vitro selection for triplet polymerase activity
Procedure, shortened: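 A single round of triplicate in vitro selection, including frozen incubation at −7 °C, was applied to PCR-built, transcribed mutant libraries of each subunit of a heterodimeric triplet polymerase ribozyme. Illumina sequencing of input and output libraries retained genotypes with ≥10 input reads and ≥1 read per output. Fitness is the base-2 logarithm of genotype enrichment divided by wild-type enrichment, from inverse-variance-weighted replicate averages.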

Row | Variant | polymerase ribozyme fitness (log ratio)
1 | GGAUCUUCUCGAUCCAACAAAAAAGGCAAAUCUGCCACAAAGCGUGAGAGCAUUUUCGGAUGUAGAGGCGGCAGCCUUCGGUGGCGGGACAGCGCCAACGUUCUCAACUAUGACACGCAAAACGCGUGCUCCGUUGAAUGGAGUUUAUCAUG [U15C A26G U44G C54U C63U C87G U90C] | ≤ -4.2
2 | GGAUCUUCUCGAUCAAACAUAAGAGACAAAUCUGCCGCAAAGCUUGAGAGCAUCUUCGGAUGCAGAGCCGGCAGCCUUCGGUGGCGCGAUAGCGCUAACGUUCUCAACUAUGACACGCAAAACGCGUGGUCCGUUGAAUGGAGAUUAUCAUG [U15A A20U A23G A37G G68C C96U C129G U144A] | ≤ -4.2
3 | GGAUCUUCUCGAUCAAACAAAAAAGACAAAUCUGCCACAAAGCUUGAGAGUAUCUUCUGAUGCAGAGGGGGCAGCCUUCGGUGGCGCGAUAGCGCCAACGUUCUCAACUAUGACACGCAAAACGCGUGCUCCGUUGAAUGGAGUUUAUCAUG [U15A C51U G58U C69G] | -1.91
4 | GGAUCUUCUCGAUCAAACAAAAAAGACAAAUCUGCCAAAAAGCUUGAGAGCAUCUUCGGAUGCAGAGGCGGCUGCCUUCGGUUCCGCGAUAGCGCCAACGUUCUCAACUAUGACACGCAAAACGCGUGCUCCGUUGAAUGGAGUUUAUCAUG [U15A C38A A73U G83U G84C] | ≤ -4.2
5 | GGAUCUUCUCGAUCCAUCAAAAAAGACAAAUCUGCCACAAAGCUUGAGAGUAUCUUCGGAUGCAGAGGCGGCAGCCUUCGGUAGCGCGAUAGCGCCAACGUUCUCAACUAUGACACGCAAAAGGCGUGCUCCGUUGAAUGGAGUUUAUCAUA [U15C A17U C51U G83A C123G G152A] | -2.38
6 | GGAUCUUCUCGAUCAAACAAAAAAGACAAAUCUGCCACAAAGCUUGAGAGCAUCUUCGGAUGCAGAGGCGGCAGCCUUCGGUGGCGAGAUAGCGCCAACGUUCUCAUAUAUGACACGCAAAACGCGUGCUCCGUUGAAUGGAGUUUAUCAUG [U15A C87A A107U C108A] | ≤ -4.2
7 | GGAUCUUCUCGAUCAAACAGAAAAGUCAAAUCUGCCACGAAGCUUGCGAGCAUCUUCGGAUGCAGAGGCGGCAGCCUUUGGUGGCGCGAUAGCGCCAACGUUGUCAACUAUGACACGCAAAACGCGUGCUCCGUUGAAUAGAGUUUAUCAUG [U15A A20G A26U A39G A47C C79U C103G G140A] | ≤ -4.2
8 | GGAUCUUCUCGAUCCAACAAAAAAGACAAAUCUGCCACAAAGCUUGAGAGCCUCUUCGGAUGCAGAGGCGGCAGCCUUCGGUGGGGCGAUAGCACCAACGUUCUCAACUAUGACACGCAAAACGCGUGCUCCGUUGAAUGGAGUUUAUCAUG [U15C A52C C85G G94A] | 0.00508
9 | GGAUCUUCUCGAUCCAACAAAAAAGACAAAUCUGCCACAACGCUUGAGAGCAUCUUUGGAUGCAGAGGCGGCAGCUUUCGGUGGCGCGAUAGUGCCAACGUUCUCAACUAUGACACGCAAAACGCGUGCUCCGUUGAAUGGAGUUUAUCAUG [U15C A41C C57U C76U C93U] | -0.0442
10 | GGAUCUUCUCGAUCAAACAAACAAGACAAAUCUGCCACACAGCUUGAGAGCAUCUUCGGGUGCAGAGGCGGCAGCCUUCGGUGGCGCGAUAGCGCCAACGUUCUCAACUAUGACACGCAAAACGCGUGCUCCGUUGAAUGGAGUUUAUCAUG [U15A A22C A40C A60G] | 0.68
11 | GGAUCUUCUCGAUCCAACAAAAAAGACAAAUCUGCCACAUAGCUUGAGAGCAUCUUCGCAUGCAGAGGCGGCAGCCUUCGGUGGUGCGAUAGCGCCAACGUUCUCAACUAUGACACGCAAAACGCGUGCUCCGUUGAAUGGAGUUUAUCAUG [U15C A40U G59C C85U] | 1.15
12 | GGAUCUUCUCGAUCAAACAAAAAAGACAAAUCUGCCACAAAGCUUGAGAGCAUCUUCGGAUGCAGAGGCGGCAGGCUUCGGUGGCGCGAUAGCGUCAACGUUCUCAACUAUGACACGCAAAACGCGUGCUCCGUUGAAUGGCGUUUAUCAUG [U15A C75G C95U A142C] | ≤ -4.2
13 | GGAUCUUCUCGAUCAAACAAAAAAGACAAAUCUGCCACAAAUCUUGAGAGCAUCUUCGGAUGCAGAGGCGGCAGCCUUCGGUGGCGGGAUAGCACCAAGGUUCUCAACUAUGACACGCAAAACGUGUGCUCCGUUGAAUGGAGUUUAACAUG [U15A G42U C87G G94A C99G C125U U148A] | ≤ -4.2
14 | GGAUCUUCUCGAUCAAAGAAAAAAGACAAAUCUGCCACAAAGCUUGAGAGCAUCUUCGGAUGCAGAGGCGGCAGCCUUCGGUGGCGCGAUAGCGCCAACGUUCUCAACUAUGACACGCAAAACGCGUGCUCCGUUGAAUGGAGUUGAUCAUG [U15A C18G U146G] | -0.119
15 | GGAUCUUCUCGAUCCAACAAAAACGACAAAUCUGCUACAUAGCUUGAGAGCAUCUUCGGAUGCAGAGGCGGCAGCCUUGGGUGGCGCGAUAGGGCCAACAUUCUCAACUAUGACACGCAAAACGGGUGCUCCGUUGAACGGAGUUUAUCAUG [U15C A24C C36U A40U C79G C93G G100A C125G U139C] | ≤ -4.2
16 | GGAUCUUCUCGAUCAAACAAAAAAGACAAAUCUGCCACAAAGCUUUCGAGCAUCUUCGGAUGCAGAGGCGGUAGCCUUCGGUGGCGCUAUAGCAGCGACGUUCUCAAGUAUGACGCGCAAAACGCGUGCUCCGUUGAAUGGAGUUUAUCAUG [U15A G46U A47C C72U G88U G94A C95G A97G C108G A115G] | ≤ -4.2
17 | GGAUCUUCUCGAUCAAACAAAAAAGACAAAUCUGCCACAAAGCUUGAGAGCAUCUUCGGAUGCAGAGGCGGCAGCCUUCGGUGGCGUGAUAGCGCCAACGUUCUCAACUAUGACACGCAAAACGCGUGCUCCGUUGAAUGGAGUUUAUCAUG [U15A C87U] | -0.632
18 | GGAUCUUCUCGAUCAAACAAAAAAUACAAAUCUGCCACAAAGCUUGAGAGCAUCUUCGGGUGCAGAGGCGGCAAACUUCGGUGGCGCGAUAGCGCCAACGUUCUCAACUAUGACACGCAAAACGCGUGCUCCGUUGAAUGGUGUUUAUCAUG [U15A G25U A60G G74A C75A A142U] | ≤ -4.2
19 | GGAUCUUCUCGAUCCAACAAAAAAGACAAAUCUGCCACAAAGCUUGAGGGCAUCUUCGGAUGCAGAGGCGGCAGCCUUCGGUGGCGCGAUAGCGCCAACGUUCUCAACUAUGACAAGCAAAACGCGUGCUCCGUUGAUUGGAGUUUAUCAUG [U15C A49G C116A A138U] | -3.99
